Experimental data: patent US20240400613A1 (SUN PHARMACEUTICAL INDUSTRIES, published 2024)
Starred links: 1 amine or outer side, 2 acyl side, 3 side chain; linkers in the order of their positions; H or OH if unused. Non-standard residues stand in square brackets, D forms with d. Groups on a side chain read outwards from the residue. No end group written: not given here. *: point of attachment. C20 diacid = O=C(O)CCCCCCCCCCCCCCCCCCC(=O)*; γGlu = O=C(O)[C@H](CCC(=O)[*:2])N[*:1]; Nle = CCCC[C@H](N)C(=O)O; Nva = CCC[C@H](N)C(=O)O; AEEA = NCCOCCOCC(=O)O; Aib = CC(C)(N)C(=O)O

T1: GIPR (UniProt P48546 22-466, limits assumed)
T1 sequence (looked up): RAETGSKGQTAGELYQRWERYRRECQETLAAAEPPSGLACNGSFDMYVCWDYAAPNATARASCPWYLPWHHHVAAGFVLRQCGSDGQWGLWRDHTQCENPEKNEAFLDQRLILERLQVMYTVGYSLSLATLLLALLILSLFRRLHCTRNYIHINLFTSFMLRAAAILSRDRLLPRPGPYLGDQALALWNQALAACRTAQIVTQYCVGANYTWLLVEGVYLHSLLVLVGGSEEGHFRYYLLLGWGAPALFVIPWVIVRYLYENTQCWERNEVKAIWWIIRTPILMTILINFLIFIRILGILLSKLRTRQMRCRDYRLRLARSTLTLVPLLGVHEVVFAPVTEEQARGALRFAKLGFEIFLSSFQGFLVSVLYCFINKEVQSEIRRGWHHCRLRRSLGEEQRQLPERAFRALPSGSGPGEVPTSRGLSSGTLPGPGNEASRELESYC

B1: Compound 10 (peptide)
peptide: YXEGTFTSDYSIXLDKIAQKAFVQWLIAGGPSSGAPPPS
modifications: Aib at position 2; L-homoalanine (2-aminobutyric acid) at position 13; Lys 20 side chain (epsilon amino) acylated with Moiety A; C-terminal amide (Ser-NH2)
B2: Compound 3 (peptide)
peptide: Y[Aib]EGTFTSDYSILLDKIAQK([AEEA-Aib-γGlu-C20 diacid])AFVQWLIAGGPSSGAPPPS-NH2
modifications: N-terminus assumed
SMILES: CC[C@H](C)[C@H](NC(=O)[C@H](CCCCN)NC(=O)[C@H](CC(=O)O)NC(=O)[C@H](CC(C)C)NC(=O)[C@H](CC(C)C)NC(=O)[C@@H](NC(=O)[C@H](CO)NC(=O)[C@H](Cc1ccc(O)cc1)NC(=O)[C@H](CC(=O)O)NC(=O)[C@H](CO)NC(=O)[C@@H](NC(=O)[C@H](Cc1ccccc1)NC(=O)[C@@H](NC(=O)CNC(=O)[C@H](CCC(=O)O)NC(=O)C(C)(C)NC(=O)[C@@H](N)Cc1ccc(O)cc1)[C@@H](C)O)[C@@H](C)O)[C@@H](C)CC)C(=O)N[C@@H](C)C(=O)N[C@@H](CCC(N)=O)C(=O)N[C@@H](CCCCNC(=O)COCCOCCNC(=O)C(C)(C)NC(=O)CC[C@H](NC(=O)CCCCCCCCCCCCCCCCCCC(=O)O)C(=O)O)C(=O)N[C@@H](C)C(=O)N[C@@H](Cc1ccccc1)C(=O)N[C@H](C(=O)N[C@@H](CCC(N)=O)C(=O)N[C@@H](Cc1c[nH]c2ccccc12)C(=O)N[C@@H](CC(C)C)C(=O)N[C@H](C(=O)N[C@@H](C)C(=O)NCC(=O)NCC(=O)N1CCC[C@H]1C(=O)N[C@@H](CO)C(=O)N[C@@H](CO)C(=O)NCC(=O)N[C@@H](C)C(=O)N1CCC[C@H]1C(=O)N1CCC[C@H]1C(=O)N1CCC[C@H]1C(=O)N[C@@H](CO)C(N)=O)[C@@H](C)CC)C(C)C
B3: Compound 1 (peptide)
peptide: Y[Aib]EGTFTSDYSI[Nva]LDKIAQK([AEEA-Aib-γGlu-C20 diacid])AFVQWLIAGGPSSGAPPPS-NH2
modifications: N-terminus assumed
SMILES: CCC[C@H](NC(=O)[C@@H](NC(=O)[C@H](CO)NC(=O)[C@H](Cc1ccc(O)cc1)NC(=O)[C@H](CC(=O)O)NC(=O)[C@H](CO)NC(=O)[C@@H](NC(=O)[C@H](Cc1ccccc1)NC(=O)[C@@H](NC(=O)CNC(=O)[C@H](CCC(=O)O)NC(=O)C(C)(C)NC(=O)[C@@H](N)Cc1ccc(O)cc1)[C@@H](C)O)[C@@H](C)O)[C@@H](C)CC)C(=O)N[C@@H](CC(C)C)C(=O)N[C@@H](CC(=O)O)C(=O)N[C@@H](CCCCN)C(=O)N[C@H](C(=O)N[C@@H](C)C(=O)N[C@@H](CCC(N)=O)C(=O)N[C@@H](CCCCNC(=O)COCCOCCNC(=O)C(C)(C)NC(=O)CC[C@H](NC(=O)CCCCCCCCCCCCCCCCCCC(=O)O)C(=O)O)C(=O)N[C@@H](C)C(=O)N[C@@H](Cc1ccccc1)C(=O)N[C@H](C(=O)N[C@@H](CCC(N)=O)C(=O)N[C@@H](Cc1c[nH]c2ccccc12)C(=O)N[C@@H](CC(C)C)C(=O)N[C@H](C(=O)N[C@@H](C)C(=O)NCC(=O)NCC(=O)N1CCC[C@H]1C(=O)N[C@@H](CO)C(=O)N[C@@H](CO)C(=O)NCC(=O)N[C@@H](C)C(=O)N1CCC[C@H]1C(=O)N1CCC[C@H]1C(=O)N1CCC[C@H]1C(=O)N[C@@H](CO)C(N)=O)[C@@H](C)CC)C(C)C)[C@@H](C)CC
B4: Compound 11 (peptide)
peptide: Y[Aib]EGTFTSDYSI[Nle]LDKIAQK([AEEA-Aib-γGlu-C20 diacid])AFVQWLIAGGPSSGAPPPS-NH2
modifications: N-terminus assumed
SMILES: CCCC[C@H](NC(=O)[C@@H](NC(=O)[C@H](CO)NC(=O)[C@H](Cc1ccc(O)cc1)NC(=O)[C@H](CC(=O)O)NC(=O)[C@H](CO)NC(=O)[C@@H](NC(=O)[C@H](Cc1ccccc1)NC(=O)[C@@H](NC(=O)CNC(=O)[C@H](CCC(=O)O)NC(=O)C(C)(C)NC(=O)[C@@H](N)Cc1ccc(O)cc1)[C@@H](C)O)[C@@H](C)O)[C@@H](C)CC)C(=O)N[C@@H](CC(C)C)C(=O)N[C@@H](CC(=O)O)C(=O)N[C@@H](CCCCN)C(=O)N[C@H](C(=O)N[C@@H](C)C(=O)N[C@@H](CCC(N)=O)C(=O)N[C@@H](CCCCNC(=O)COCCOCCNC(=O)C(C)(C)NC(=O)CC[C@H](NC(=O)CCCCCCCCCCCCCCCCCCC(=O)O)C(=O)O)C(=O)N[C@@H](C)C(=O)N[C@@H](Cc1ccccc1)C(=O)N[C@H](C(=O)N[C@@H](CCC(N)=O)C(=O)N[C@@H](Cc1c[nH]c2ccccc12)C(=O)N[C@@H](CC(C)C)C(=O)N[C@H](C(=O)N[C@@H](C)C(=O)NCC(=O)NCC(=O)N1CCC[C@H]1C(=O)N[C@@H](CO)C(=O)N[C@@H](CO)C(=O)NCC(=O)N[C@@H](C)C(=O)N1CCC[C@H]1C(=O)N1CCC[C@H]1C(=O)N1CCC[C@H]1C(=O)N[C@@H](CO)C(N)=O)[C@@H](C)CC)C(C)C)[C@@H](C)CC
B5: Compound 6 (peptide)
peptide: Y[Aib]EGTFTSDYSI[Nva]LDKIAQK([AEEA-AEEA-γGlu-C20 diacid])AFVQWLIAGGPSSGAPPPS-NH2
modifications: N-terminus assumed
SMILES: CCC[C@H](NC(=O)[C@@H](NC(=O)[C@H](CO)NC(=O)[C@H](Cc1ccc(O)cc1)NC(=O)[C@H](CC(=O)O)NC(=O)[C@H](CO)NC(=O)[C@@H](NC(=O)[C@H](Cc1ccccc1)NC(=O)[C@@H](NC(=O)CNC(=O)[C@H](CCC(=O)O)NC(=O)C(C)(C)NC(=O)[C@@H](N)Cc1ccc(O)cc1)[C@@H](C)O)[C@@H](C)O)[C@@H](C)CC)C(=O)N[C@@H](CC(C)C)C(=O)N[C@@H](CC(=O)O)C(=O)N[C@@H](CCCCN)C(=O)N[C@H](C(=O)N[C@@H](C)C(=O)N[C@@H](CCC(N)=O)C(=O)N[C@@H](CCCCNC(=O)COCCOCCNC(=O)COCCOCCNC(=O)CC[C@H](NC(=O)CCCCCCCCCCCCCCCCCCC(=O)O)C(=O)O)C(=O)N[C@@H](C)C(=O)N[C@@H](Cc1ccccc1)C(=O)N[C@H](C(=O)N[C@@H](CCC(N)=O)C(=O)N[C@@H](Cc1c[nH]c2ccccc12)C(=O)N[C@@H](CC(C)C)C(=O)N[C@H](C(=O)N[C@@H](C)C(=O)NCC(=O)NCC(=O)N1CCC[C@H]1C(=O)N[C@@H](CO)C(=O)N[C@@H](CO)C(=O)NCC(=O)N[C@@H](C)C(=O)N1CCC[C@H]1C(=O)N1CCC[C@H]1C(=O)N1CCC[C@H]1C(=O)N[C@@H](CO)C(N)=O)[C@@H](C)CC)C(C)C)[C@@H](C)CC

Tests used:
[1] = biological target: GLP-1R (UniProt P43220 24-463, limits assumed); experiment: cell-based or functional assay
[2] = biological target: T1, GIPR; experiment: cell-based or functional assay

| Molecule | Half effective Concentration (EC50), cellular cAMP assay on GLP-1R-expressing cells [1] [nM] | Half effective Concentration (EC50), cellular cAMP assay on GIPR-expressing cells [2] [nM] |
| --- | --- | --- |
| Tirzepatide (peptide) | 6.8 | 1.9 |
| B1 | 0.0036 | 0.0073 |
| B2 | 0.0327 | 0.0128 |
| B3 | 0.0124 | 0.0276 |
| B4 | 0.0059 | 0.0064 |
| B5 | 0.0196 | 0.0177 |
